# Assay results taken from PMC3285688, “Active Site Mutations Change the Cleavage Specificity of Neprilysin” (PLoS ONE, 2012).
# Several values for one entry are separate records, joined by “and”; a condition that tells them apart may be missing. Equal values may be shown once.
# How the values were obtained:
# [1] = biological target: secreted form of human neprilysin, mutant F563L (human); experiment: enzyme kinetics, competitive (alternate substrate) inhibition of Glut-Ala-Ala-Phe-MNA hydrolysis, Dixon plot; insulin B chain varied from 1 to 40 µM against hydrolysis of the fluorogenic substrate Glut-Ala-Ala-Phe-MNA by NEP or mutant; Ki from ID50 = Ki(1+[S]/Km); 37°C, 20 mM MES buffer, pH 6.5
# [2] = biological target: secreted form of human neprilysin, mutant F563V (human); experiment: as above
# [3] = biological target: secreted form of human neprilysin, mutant F563M (human); experiment: as above
# [4] = biological target: secreted form of human neprilysin, mutant F563I (human); experiment: as above
# [5] = biological target: secreted form of human neprilysin (shNEP), wild type (human) (UniProt P08473); experiment: as above
# Aß1–40 [6] = experiment: Time course of product peak accumulation from Aß1–40; assay type: biochemical; conditions: 24 µM Aß1–40, 37°C, 20 mM MES, pH 6.5; 0-360 min, HPLC peak area, linear phase
# Method: Similar to the analysis conducted with insulin B chain, the linear rate of product accumulation was determined for each peak and normalized to the amount of protein in the reaction, Table 7 . Unlike the hydrolysis of insulin B chain, the hydrolysis of Aß1–40, even at the earliest time points, produced products resulting from multiple cleavage events. Out of the 12 identified product peaks, only 3 could be produced by a single cleavage. Rates for all cleavages were calculated and are given in Figure 4, B–D , but only the three putative primary cleavage sites can be compared.
# (§1) Cleavage of physiological peptides was measured via reverse phase high performance liquid chromatography (HPLC) following incubation of the purified NEP or its mutants with 15 µM insulin B chain (Sigma Aldrich), 24 µM Aß1–40 (Anaspec), or 64 µM leu-ENK (Sigma) in 100 µL of 20 mM MES, pH 6.5, at 37°C. Reactions were run in triplicate. HPLC was carried out in a Vydac C4 column using a linear gradient from 0.1% trifluoroacetic acid (TFA) in 95% water, 5% acetonitrile to 0.1% TFA in 50% acetonitrile/water at a flow rate of 1 mL/min. Peptides and hydrolysis products were detected at 214 nm and quantified by measuring peak areas. Peptides obtained from HPLC were analyzed on an Applied Biosystems 4800 MALDI TOF/TOF Proteomics Analyzer at the University of Kentucky Proteomics core. This facility is supported in part by grant P20RR020171 from the NIH/NCRR.
# insulin B chain [7] = experiment: Rate of insulin B chain hydrolysis (HPLC); assay type: biochemical; conditions: 15 µM insulin B chain, 37°C, 20 mM MES buffer, pH 6.5; disappearance of substrate by HPLC; at least triplicate
# Method: as §1
# (§2) Statistical analysis comparing wild-type NEP and its mutants was performed with Prism 4 software using a two-tailed paired t-test with a 95% confidence interval.
# [8] = Hydrolysis of synthetic substrate Glut-Ala-Ala-Phe-MNA by NEP and mutants (fluorogenic); assay type: biochemical; conditions: 37°C, 20 mM MES buffer, pH 6.5
# Method: Reactions of 400 µl contained 100 µM Glut-Ala-Ala-Phe-MNA, 1 µg of aminopeptidase and 15 to 100 ng of NEP or mutant NEP depending on their activity in 20 mM MES buffer, pH 6.5. Activity was monitored with a Spectra Max Gemini XS plate reader using an excitation wavelength of 340 nm and an emission wavelength of 425 nm.
# (§3) Kinetic constants for NEP and its mutants were obtained using the assay conditions noted above, but with Glut-Ala-Ala-Phe-MNA varied from 20 to 500 µM. Typically 12 data points were obtained. The data were fit to the Michaelis-Menten equation using Prism4 software. The Ki for insulin B chain was obtained by measuring the rate of Glut-Ala-Ala-Phe-MNA hydrolysis in the presence of varying concentrations of insulin B chain from 1 to 40 µM. Data were fit to a Dixon plot (1/rate versus [insulin B chain]) using Prism4 software and the ID50 obtained as the –x intercept, where ID50 corresponds to the concentration of insulin producing 50% inhibition. The actual Ki was obtained from the equation: ID50 = Ki (1+ [Glut-Ala-Ala-Phe-MNA]/KmGlut-Ala-Ala-Phe-MNA), [33].
# insulin B chain [9] = experiment: Insulin B chain as alternate substrate (competitive) inhibitor of Glut-Ala-Ala-Phe-MNA hydrolysis (Dixon plot); assay type: biochemical; conditions: insulin B chain 1 to 40 µM as competitive inhibitor of Glut-Ala-Ala-Phe-MNA hydrolysis by the enzyme form, 37°C, 20 mM MES, pH 6.5, ID50 converted to Ki
# Method: as §3
# insulin B chain [10] = experiment: Time course of product peak accumulation from insulin B chain; assay type: biochemical; conditions: 15 µM insulin B chain, 37°C, 20 mM MES, pH 6.5; 0-180 min, HPLC peak area 214 nm, linear phase
# Description: As a representative of the NEP^F563 and NEP^S546 mutants, we compared the cleavage profile of NEP^F563L and NEP^S546E to that of NEP using time course experiments, Figure 2 . By adjusting the amount of NEP mutant used, the rate of hydrolysis of insulin B chain by all NEP forms was virtually identical. […] Since rates were based on peak areas measured at 214 nm, which in turn is dependent on both the number of peptide bonds and the number of aromatic residues within a given peptide, only the observed rates of change for a particular peptide product can be compared between enzyme forms. A comparison of the rate of change of different peaks within the same enzyme form or between enzyme forms is not valid under our conditions of analysis.
# as §1
# insulin B chain [11] = experiment: Dual substrate assay: insulin B chain hydrolysis in presence of leu-ENK; assay type: biochemical; conditions: 15 µM insulin B chain and 64 µM leu-ENK together, 37°C, 20 mM MES buffer, pH 6.5
# Method: (§4) The rate of cleavage of a substrate mixture is determined by both the kcat for that substrate as well by the affinity for the substrate. […] This is expected, given that each peptide acts as a competitive inhibitor of the other. […] That is the ratio for leu-ENK/insulin B chain cleavage is 3 for NEP^S546E compared to 6 for wild-type NEP.
# as §1
# Aß = conditions: transgenic mice; cited from earlier work
# Description: Because of its multiple targets, NEP has been the focus of numerous studies attempting to modulate its activity for therapeutic purposes. One such target is the use of NEP to reduce Aß peptide levels in Alzheimer's disease, since the oligomerization of Aß has been linked to the etiology of this disease. […] In yet another application inhibitors of NEP were developed to block its “enkephalinase” activity to increase the concentra ...
# leu-ENK [12] = experiment: Rate of leu-ENK hydrolysis (HPLC); assay type: biochemical; conditions: 64 µM leu-ENK, 37°C, 20 mM MES buffer, pH 6.5; disappearance of substrate by HPLC; at least triplicate
# Method: as §1, §2
# Aß1–40 [13] = experiment: Rate of Aß1–40 hydrolysis (HPLC); assay type: biochemical; conditions: 24 µM Aß1–40, 37°C, 20 mM MES buffer, pH 6.5; disappearance of substrate by HPLC; at least triplicate
# Method: as §1, §2
# leu-ENK [14] = experiment: Dual substrate assay: leu-ENK hydrolysis in presence of insulin B chain; assay type: biochemical; conditions: 15 µM insulin B chain and 64 µM leu-ENK together, 37°C, 20 mM MES buffer, pH 6.5
# Method: as §4, §1
# [15] = system: leu-ENK and insulin B chain; experiment: Dual substrate assay: substrate preference leu-ENK versus insulin B chain; assay type: biochemical; conditions: ratio of rates, 15 µM insulin B chain and 64 µM leu-ENK together
# Method: as §4, §1
# Chain of insulin B chain (P01317 25-54): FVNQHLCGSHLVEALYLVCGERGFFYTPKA
molecule,measurement,setting,value
insulin B chain (from UniProt P01317 25-54) (peptide),Ki,[1],1500 nM
same,Ki,[2],1000 nM
same,Ki,[3],1200 nM
same,Ki,[4],2500 nM
same,Ki,[5],1900 nM
"NEP: secreted form of human NEP (shNEP) expressed as a C-terminal hexahistidine fusion protein (protein, UniProt P08473 52-750, looked up, extracellular domain C-terminal His6 tag, secreted form of human NEP (shNEP) expressed as a C-terminal hexahistidine fusion protein) extracellular domain: YDDGICKSSDCIKSAARLIQNMDATTEPCTDFFKYACGGWLKRNVIPETSSRYGNFDILRDELEVVLKDVLQEPKTEDIVAVQKAKALYRSCINESAIDSRGGEPLLKLLPDIYGWPVATENWEQKYGASWTAEKAIAQLNSKYGKKVLINLFVGTDDKNSVNHVIHIDQPRLGLPSRDYYECTGIYKEACTAYVDFMISVARLIRQEERLPIDENQLALEMNKVMELEKEIANATAKPEDRNDPMLLYNKMTLAQIQNNFSLEINGKPFSWLNFTNEIMSTVNISITNEEDVVVYAPEYLTKLKPILTKYSARDLQNLMSWRFIMDLVSSLSRTYKESRNAFRKALYGTTSETATWRRCANYVNGNMENAVGRLYVEAAFAGESKHVVEDLIAQIREVFIQTLDDLTWMDAETKKRAEEKALAIKERIGYPDDIVSNDNKLNNEYLELNYKEDEYFENIIQNLKFSQSKQLKKLREKVDKDEWISGAAVVNAFYSSGRNQIVFPAGILQPPFFSAQQSNSLNYGGIGMVIGHEITHGFDDNGRNFNKDGDLVDWWTQQSASNFKEQSQCMVYQYGNFSWDLAGGQHLNGINTLGENIADNGGLGQAYRAYQNYIKKNGEEKLLPGLDLNHKQLFFLNFAQVWCGTYRPEYAVNSIKTDVHSPGNFRIIGTLQNSAEFSEAFHCRKNSYMNPEKKCRVW",Accumulation rate of peak Aß 1–9 (single cleavage G^9-Y^10),Aß1–40 [6],7 Δarea/min/ng
same,Accumulation rate of peak Aß 1–16 (single cleavage K^16-L^17),Aß1–40 [6],22 Δarea/min/ng
same,Accumulation rate of peak Aß 1–17 (single cleavage L^17-V^18),Aß1–40 [6],75 Δarea/min/ng
same,"Accumulation rate of peak Aß 4–9 (dual cleavages A^3-F^4, G^9-Y^10)",Aß1–40 [6],10 Δarea/min/ng
same,"Accumulation rate of peak Aß 4–16 (dual cleavages A^3-F^4, K^16-L^17)",Aß1–40 [6],7 Δarea/min/ng
same,"Accumulation rate of peak Aß 4–17 (dual cleavages A^3-F^4, L^17-V^18)",Aß1–40 [6],9 Δarea/min/ng
same,"Accumulation rate of peak Aß 10–16 (dual cleavages G^9-Y^10, K^16-L^17)",Aß1–40 [6],4 Δarea/min/ng
same,"Accumulation rate of peak Aß 10–17 (dual cleavages G^9-Y^10, L^17-V^18)",Aß1–40 [6],18 Δarea/min/ng
same,"Accumulation rate of peak Aß 12–17 (dual cleavages E^11-V^12, L^17-V^18)",Aß1–40 [6],3 Δarea/min/ng
same,"Accumulation rate of peak Aß 20–28 (dual cleavages F^19-F^20, K^28-G^29)",Aß1–40 [6],11 Δarea/min/ng
same,"Accumulation rate of peak Aß 20–29 (dual cleavages F^19-F^20, G^29-A^30)",Aß1–40 [6],16 Δarea/min/ng
same,"Accumulation rate of peak Aß 20–30 (dual cleavages F^19-F^20, A^30-I^31)",Aß1–40 [6],34 Δarea/min/ng
same,Rate of hydrolysis of Insulin B Chain,insulin B chain [7],0.86 ± 0.13 pmol/min/ng
same,Specific Activity (Glut-Ala-Ala-Phe-MNA cleavage),"[8]; 100 µM Glut-Ala-Ala-Phe-MNA, fluorescence ex 340 nm, em 425 nm",45.9 ± 2.5 pmol/min/ng
same,Km,"[8]; Glut-Ala-Ala-Phe-MNA 20 to 500 µM, Michaelis-Menten fit",51 ± 11 µM
same,Ki,insulin B chain [9],1900 ± 200 nM
same,Rate of accumulation of peak 1–5 (single cleavage H^5-L^6),insulin B chain [10],59 Δarea/min/ng
same,Rate of accumulation of peak 1–10 (single cleavage H^10-L^11),insulin B chain [10],163 Δarea/min/ng
same,Rate of accumulation of peak 1–11 (single cleavage L^11-V^12),insulin B chain [10],88 Δarea/min/ng
same,Rate of accumulation of peak 1–14 (single cleavage A^14-L^15),insulin B chain [10],167 Δarea/min/ng
same,Rate of accumulation of peak 1–16 (single cleavage Y^16-L^17),insulin B chain [10],31 Δarea/min/ng
same,"Rate of accumulation of peak 15–23 (two cleavages A^14-L^15, G^23-F^24)",insulin B chain [10],23 Δarea/min/ng
same,Rate of accumulation of peak 15–30 (single cleavage A^14-L^15),insulin B chain [10],135 Δarea/min/ng
same,"Rate of accumulation of peak 17–24 (two cleavages Y^16-L^17, F^24-F^25)",insulin B chain [10],33 Δarea/min/ng
same,Rate of accumulation of peak 17–30 (single cleavage Y^16-L^17),insulin B chain [10],171 Δarea/min/ng
same,Rate of accumulation of peak 24–30 (single cleavage G^23-F^24),insulin B chain [10],268 Δarea/min/ng
same,"Insulin B Chain hydrolysis rate, dual substrate assay",insulin B chain [11],0.20 ± 0.04 pmol/min/ng
same,"Insulin B Chain hydrolysis, activity relative to the uninhibited value",insulin B chain [11]; numbers in parenthesis,0.23
same,Effect of NEP expression on cognitive deficits typically attributed to AD,Aß,ameliorates cognitive deficits
same,Effect of NEP expression on level of Aß,Aß,decreases the level of Aß
same,Rate of hydrolysis of leu-ENK,leu-ENK [12],1.90 ± 0.23 pmol/min/ng
same,Rate of hydrolysis of Aß1–40,Aß1–40 [13],198 ± 12 fmol/min/ng
same,"leu-ENK hydrolysis rate, dual substrate assay",leu-ENK [14],1.16 ± 0.06 pmol/min/ng
same,"leu-ENK hydrolysis, activity relative to the uninhibited value",leu-ENK [14]; numbers in parenthesis,0.61
same,Ratio leu-ENK insulin B chain,[15],6 and 5.8
